Test results taken from patent publication US20260043817A1 (UNIVERSITY OF TOKYO, published 2026).

Biological target: T1, HA-tagged Fluc-DM (Fluc-HA-DM) (firefly, UniProt P08659 1-550 = luciferase)
T1 construct: Model misfolded (structurally abnormal) protein, co-expressed in HeLa cells; Derived from the Addgene plasmid FlucDM-HA-GFP11-N1; also called R188Q/R261Q double mutant of firefly luciferase; aggregated mutant luciferase; not shown: HA tag
Experiment: co-immunoprecipitation with anti-FLAG M2 gel from HeLa lysates, immunoblot

- binding result: no binding
B1: FLAG-LONRF2-LonSBm (P5A) (enzyme)
chain: MSPEPVPPPPPPQCPGCDRAEPIAQRLEEGDEAFRAGDYEMAAELFRSMLAGLAQPDRGLCLRLGDALARAGRLPEALGAFRGAARLGALRPEELEELAGGLVRAVGLRDRPLSAENPGGEPEAPGEGGPAPEPRAPRDLLGCPRCRRLLHKPVTLPCGLTVCKRCVEPGPARPQVRRVNVVLSGLLEKCFPAECRLRRLAGQARSLQRQQQPEAALLRCDQALELAPDDNSLLLLRAELYLTMKNYEQALQDASAACQNEPLLIKGHQVKAQALSGLGRSKEVLKEFLYCLALNPECNSVKKEAQKVMCEVLFSATANVHENLTSSIQSRLKAQGHSHMNAQALLEEGDAGSSENSSEKSDMLGNTNSSVLYFILGLHFEEDKKALESILPTAPSAGLKRQFPDDVEDAPDLNAPGKIPKKDLSLQRSPNSETEESQGLSLDVTDFECALCMRLLFEPVTTPCGHTFCLKCLERCLDHAPHCPLCKDKLSELLASRNFNITVLAEELIFRYLPDELSDRKRIYDEEMSELSNLTRDVAIFVCAMAFATVPCALHVFEPRYRLMIRRCMETGTKRFGMCLSAEHAGLSEYGCMLEIKDVRTFADGSSVVDAIGISRFRVLSHRHRDGYNTADIEYLEDEKVEGPEYEELAALHDSVHQQSVSWFASLQDRMKEQILSHFGVMPDREPEPQSNPSGPAWSWWILAVLALERKAQLAILGMTSLKERLLAIRRILVIITRKMNSRQELANARERNN
notes: not shown: FLAG tag
